# In PMC7110144:
# Columns and labels:
# [1] = target: His-CAL1(1-50) (Drosophila melanogaster) (UniProt Q9VEN2); experiment: SEC-MALS; complexes refolded from recombinant proteins; Superdex 200 increase 10/300 GL, 50 mM HEPES pH 8.0, 2 M NaCl, 1 mM TCEP, 22°C; 100 µl of 1-5 mg/ml
# [2] = target: His-CAL1(1-160) (Drosophila melanogaster) (UniProt Q9VEN2); experiment: as above
# Sequence of His-CAL1(1-160) (Drosophila melanogaster) (Q9VEN2 entry or part of it): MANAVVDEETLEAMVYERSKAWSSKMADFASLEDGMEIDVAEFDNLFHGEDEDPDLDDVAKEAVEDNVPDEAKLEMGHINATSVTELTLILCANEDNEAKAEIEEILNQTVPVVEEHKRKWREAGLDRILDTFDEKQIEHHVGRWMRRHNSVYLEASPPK
# Sequence of CENP-A(144-225)-H4 (Q9V6Q2 144-225, one chain of several): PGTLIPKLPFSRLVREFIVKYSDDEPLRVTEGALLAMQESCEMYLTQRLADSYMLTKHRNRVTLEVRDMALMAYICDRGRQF
# Sequence of CENP-A(101-225)-H4 (from UniProt Q9V6Q2 101-225; P84040 1-103) (complex; other documents disagree on this pair) (Q9V6Q2 101-225, one chain of several): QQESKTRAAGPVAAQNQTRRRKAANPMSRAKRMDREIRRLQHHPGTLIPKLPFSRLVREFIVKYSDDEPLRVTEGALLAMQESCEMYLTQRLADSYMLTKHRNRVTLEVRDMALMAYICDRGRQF
# Sequence of CENP-A(101-225)-H4 (from UniProt Q9V6Q2 101-225; P84040 1-103) (complex) (Q9V6Q2 101-225, one chain of several): as above
# Sequence of His-CAL1(1-50) (Drosophila melanogaster) (Q9VEN2 entry or part of it): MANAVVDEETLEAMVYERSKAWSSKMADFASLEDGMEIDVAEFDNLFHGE
stoichiometry N (CAL1:CENP-A:H4 = 1:1:1) [1],stoichiometry N (CAL1:CENP-A:H4 = 1:1:1) [2],Substance
1,,CENP-A(101-225)-H4 (from UniProt Q9V6Q2 101-225; P84040 1-103) (complex)
,1,CENP-A(101-225)-H4 (from UniProt Q9V6Q2 101-225; P84040 1-103) (complex; other documents disagree on this pair)
,1,CENP-A(144-225)-H4 (from UniProt Q9V6Q2 144-225; P84040 1-103) (complex; other documents disagree on this pair)
